In patent US7569660:

Assays:
Rnq1 (S. cerevisiae) = Rnq1 (S. cerevisiae) (UniProt P25367)
yeast Hsp104 protein = yeast Hsp104 protein (UniProt P31539)
Sequence of yeast Hsp104 protein (P31539 whole entry): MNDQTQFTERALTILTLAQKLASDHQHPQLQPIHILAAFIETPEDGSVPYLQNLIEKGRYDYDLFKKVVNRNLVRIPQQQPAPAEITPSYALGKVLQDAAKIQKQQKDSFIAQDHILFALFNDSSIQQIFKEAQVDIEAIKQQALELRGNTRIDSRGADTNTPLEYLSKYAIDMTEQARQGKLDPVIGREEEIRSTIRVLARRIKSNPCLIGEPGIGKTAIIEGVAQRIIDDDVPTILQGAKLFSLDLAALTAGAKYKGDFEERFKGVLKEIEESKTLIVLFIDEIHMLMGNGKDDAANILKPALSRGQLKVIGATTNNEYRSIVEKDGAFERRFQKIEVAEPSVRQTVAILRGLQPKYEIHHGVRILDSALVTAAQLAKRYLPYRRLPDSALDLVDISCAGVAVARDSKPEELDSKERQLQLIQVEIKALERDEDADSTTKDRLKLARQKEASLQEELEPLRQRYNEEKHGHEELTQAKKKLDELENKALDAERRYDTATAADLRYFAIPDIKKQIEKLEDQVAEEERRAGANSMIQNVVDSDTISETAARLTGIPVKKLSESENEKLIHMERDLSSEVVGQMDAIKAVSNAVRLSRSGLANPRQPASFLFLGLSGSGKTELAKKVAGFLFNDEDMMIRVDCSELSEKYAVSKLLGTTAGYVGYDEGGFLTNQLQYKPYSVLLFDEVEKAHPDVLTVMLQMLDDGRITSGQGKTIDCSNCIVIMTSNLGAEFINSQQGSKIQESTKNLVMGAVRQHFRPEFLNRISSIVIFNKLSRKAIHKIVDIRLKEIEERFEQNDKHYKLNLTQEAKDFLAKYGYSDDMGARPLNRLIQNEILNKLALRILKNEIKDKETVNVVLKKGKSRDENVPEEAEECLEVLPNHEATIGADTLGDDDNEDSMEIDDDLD

Rnq1 (from UniProt P25367 1-405) was tested. Which lag time of Thioflavin T fluorescence increase, seeded with 2% preformed fibers (Rnq1 (S. cerevisiae)) did it give?
The lag time of Thioflavin T fluorescence increase, seeded with 2% preformed fibers was 4.3 h.

And the lag time of Thioflavin T fluorescence increase, unseeded (Rnq1 (S. cerevisiae))?
Its lag time of Thioflavin T fluorescence increase, unseeded is 6.4 h.

Which “ATPase activity of Hsp104 (released phosphate, Malachite Green)” value (yeast Hsp104 protein) does the source give for aldolase here?
Its value is “did not”.
